In patent US20160367515A1, “Improved delivery of poorly water soluble drugs with aphafetoprotein stabilized with metal ions” (Oy Safemed Ltd., priority 2013, published 2016):

B1: Zn-rhAFP: complex of rhAFP with Zn ions, prepared with 4-fold molar excess of ZnCl2 followed by dialysis (protein, UniProt P02771 19-609, looked up)
Alpha-fetoprotein: RTLHRNEYGIASILDSYQCTAEISLADLATIFFAQFVQEATYKEVSKMVKDALTAIEKPTGDEQSSGCLENQLPAFLEELCHEKEILEKYGHSDCCSQSEEGRHNCFLAHKKPTPASIPLFQVPEPVTSCEAYEEDRETFMNKFIYEIARRHPFLYAPTILLWAARYDKIIPSCCKAENAVECFQTKAATVTKELRESSLLNQHACAVMKNFGTRTFQAITVTKLSQKFTKVNFTEIQKLVLDVAHVHEHCCRGDVLDCLQDGEKIMSYICSQQDTLSNKITECCKLTTLERGQCIIHAENDEKPEGLSPNLNRFLGDRDFNQFSSGEKNIFLASFVHEYSRRHPQLAVSVILRVAKGYQELLEKCFQTENPLECQDKGEEELQKYIQESQALAKRSCGLFQKLGEYYLQNAFLVAYTKKAPQLTSSELMAITRKMAATAATCCQLSEDKLLACGEGAADIIIGHLCIRHEMTPVNPGVGQCCTSSYANRRPCFSSLVVDETYVPPAFSDDKFIFHKDLCQAQGVALQTMKQEFLINLVKQKPQITEEQLEAVIADFSGLLEKCCQGQEQEVCFAEEGQKLISKTRAALGV
modifications: zinc ion complex
B2: rhAFP: glycosylated wild-type recombinant human alpha-fetoprotein secreted by yeast Saccharomyces cerevisiae (protein, UniProt P02771 19-609, looked up)
Alpha-fetoprotein: B1 Alpha-fetoprotein
modifications: expressed in yeast
notes: glycosylated wild-type recombinant human alpha-fetoprotein secreted by yeast Saccharomyces cerevisiae
B3: eAFP: fetal serum human AFP isolated from human cord serum (protein, UniProt P02771 19-609, looked up)
Alpha-fetoprotein: B1 Alpha-fetoprotein

System: normal CBA mice splenocytes
Assay: Unspecific toxicity against normal splenocytes, trypan blue staining
Conditions: 48 h, standalone protein
Method: Zn-rhAFP was prepared in a molecular ratio Zn:rhAFP=4:1. Viable cells were visualized by trypan blue staining. The data are expressed as percentage of viable cells in experimental cell cultures relative to untreated control. Mean of three independent experiments is shown.
Viable cells were visualized by trypan blue staining.

Row | Molecule | dose-dependent stimulation of growth of the normal splenocytes
1 | B1 | 40 % of control
2 | B2 | 40 % of control

System: mammary carcinoma cell line MCF-7
Assay: MTS cell viability assay, mammary carcinoma MCF-7 cells
Format: cell-based, human
Conditions: Example 3, MCF-7, 48 h, protein without drug, read-out: IC50, tumor suppressive effect of AFP species standalone
Method: Effect of binding of Zn ions to rhAFP and sugar-free rhAFPo species was tested by measuring of their dose-dependent tumor-suppressive effect for mammary carcinoma cell line MCF-7 in vitro, as it was earlier described for natural embryonic eAFP (Dudich et al., Eur. J. Biochem. 1999; 266: 750-761). MCF-7 cells were incubated with various doses of rhAFP (rhAFPo), Zn-rhAFP (Zn-rhAFPo) or with natural embryonic eAFP for 48 h, and thereafter their viability was assessed by the colorimetric MTS assay (FIG. 1A).
Cell viability was assessed by the Promega CellTiter 96 AQueous Non-Radioactive Cell Proliferation MTS assay (Promega, USA) according to manufacturer's instructions. Cells were incubated with various AFP samples for 48 h as described above, followed by incubation with MTS-test reagents and measuring of the light adsorption of the formasan, appeared in the lysed cell supernatants at 492 nm by using VICTOR-1420 multilabel counter (Wallac, Finland). Intact cell cultures incubated without additions were taken as a control. By such a way the quantity of viable cells capable to internalize MTS dye was determined. Results were expressed as the mean optical density (OD)±the standard error of the mean triplicate cultures. The extent of cell viability was calculated as an average OD in experimental wells after addition of testing compounds in relation to untreated control wells, that was taken as 100%
To evaluate the efficacy of preparations rhAFP/Ptx and Zn-rhAFP/Ptx we compared the cytotoxic effect of Ptx alone or that in combination with rhAFP or Zn-rhAFP for taxol-resistant human hepatoma HepG2 cells, human breast carcinoma cells MCF-7, and rat glioma C6 cell lines in vitro. RhAFP or Zn-rhAFP were incubated with various doses of Ptx at 37° C. for 1 h to allow complex formation with molecular ratios rhAFP:Ptx 1:1; 1:3 or 1:5 and thereafter the mixtures were introduced into the cell culture for 48 hrs. Cytotoxicity was measured by MTS assay.
Various doses of rhAFP/Ptx complexes were tested for their effectiveness for inhibition of human mammary carcinoma MCF-7, human hepatoma HepG2, and rat glioma C6 tumor cell growth in vitro. First, we optimized drug concentration and rhAFP amount to the extent that it would not generate an extensive cytotoxic effect alone. Then, the cells were seeded in 96-well plates at a density of 3×10^3/well in 100 μl of medium for 24 hrs to allow adherence. The next day, rhAFP or Zn-rhAFP combined with Ptx at the molecular ratios of 1:1; 1:3 or 1:5 were added into the each well. After 48 h of incubation MTS assays were performed to determine survival rate of the cells. All the experiments were repeated at least three times. The results were expressed as mean±standard error (SE).
The coefficient of drug interaction (CDI) was calculated to analyze the effects of rhAFP and Ptx combinations. CDI was calculated by the equation: CDI=SRAFP/drug[…]/SRAFP×SRdrug, where SRAFP/drug is the average survival rate of combination group, and SRAFP or SRdrug are the average survival rates of the single agent groups. According to our evaluation, CDI values <1, =1 or >1 indicate that the combinations are synergistic, additive or antagonistic respectively.
The values of Zn-rhAFP/Ptx or rhAFP/Ptx complex concentration, which inhibited the cell viability by 50% (IC50) when compared to untreated control, were calculated according to the Hill's equation (sigmoid model of concentration-response curve) from the curves of dependence of the relative percentage of viable cells from AFP concentration expressed as mean values from three independent experiments±SD.
In order to confirm the hypothesis that the combination of Zn-rhAFP and various low water-soluble chemotherapeutic agents would reveal increased anti-tumor efficacy, different cytotoxic compounds were tested in combination with Zn-rhAFP for their cell-killing effect in MCF-7 cells in vitro. […]

Row | IC50 [µM] | Molecule
3 | 2.5 | B1
4 | 3 | B3
5 | 3.5 | B2

Same assay, conditions: Example 6, MCF-7, 48 h, protein without Ptx, read-out: cytostatic activity (IC50) standalone against MCF-7 cells

Row | IC50 [µM] | Molecule
6 | 5.2 | B1
7 | 6.1 | B2

Same assay, conditions: MCF7 + Zn-rhAFP 1.4 μM (Zn:rhAFP 4:1) + drug, 48 h

Row | Molecule | Coefficient for drug interaction (CDI)
8 | N.N.[Cl][Pt][Cl] [Cisplatin, cisplatin] | 0.93
9 | COc1cc(/C=C/C(=O)CC(=O)/C=C/c2ccc(O)c(OC)c2)ccc1O [Curcumin, curcumin] | 0.88
10 | COc1cccc2c1C(=O)c1c(O)c3c(c(O)c1C2=O)C[C@@](O)(C(=O)CO)C[C@@H]3O[C@H]1C[C@H](N)[C@H](O)[C@H](C)O1 [Doxorubicin, doxorubicin] | 0.66
11 | COc1cc([C@@H]2c3cc4c(cc3[C@@H](O[C@@H]3O[C@@H]5CO[C@@H](C)O[C@H]5[C@H](O)[C@H]3O)[C@H]3COC(=O)[C@H]23)OCO4)cc(OC)c1O [Etoposide, etoposide] | 0.86
12 | O=c1c(-c2ccc(O)cc2)coc2cc(O)cc(O)c12 [Genistein, genistein] | 0.82
13 | CC(C)=CCC/C(C)=C/C=C/C(C)=C/C=C/C(C)=C/C=C/C=C(C)/C=C/C=C(C)/C=C/C=C(\C)CCC=C(C)C [Lycopene, lycopene] | 0.71
14 | Oc1ccc(C=Cc2cc(O)cc(O)c2)cc1 [Resveratrol, resveratrol] | 0.72

System: NF-κB p65
Assay: Immunofluorescence of activated NF-κB p65 nuclear translocation in MCF-7 cells
Format: cell-based, human
Conditions: MCF-7, 2 h treatment
Method: The cells were incubated with paclitaxel (10 μM) with addition of Zn-rhAFP (3.0 μM) and/or curcumin (3.0 μM) for 2 h and then assessed for localization of p65 by immunocytochemistry. Activated […] (p65) was detected by treatment of the cells with phospho […] p65 rabbit polyclonal antibody (Cell signaling technologies, USA) followed by secondary goat anti-rabbit Ab-Alexa594 red (Molecular Probes, USA). Cells were visualized at magnification ×400 by fluorescent microscope Axioplan; Zeiss (Germany) equipped with corresponding color filter kits.
The relative amount of p65 in the cytosol and nucleus of the cells was assessed by ImageJ software and was taken as 100% in the control (cytosol+nucleus). Total amount of activated p65 in control untreated cells was taken as 100%. The experimental data are represented as percentage of control±SD from three independent calculations in various observation fields.
MCF-7 cells were seeded on the microscopic plates Lab-Tek™ Chamber Slides (Thermo Fisher Scientific-Nunc, Germany) and cultivated at 37° C. at 5% CO2 atmosphere for 48 h to allow cell adaptation to reach 80% confluence. To test effects of chemotherapeutic preparations on the activation and translocation of NF-κB, cells were treated for 2 h with Ptx (10 nM), curcumin (30 μM); Zn-rhAFP (1.4 μM), or their combination Zn-rhAFP/Ptx/Cur, after which they were fixed with 100% ice-cold acetone. Control cells were incubated without additions and their NF-κB content was taken as 100%. Activated NF-κB was detected by treatment of the cells with phospho NF-κB p65 rabbit polyclonal antibody (Cell signaling technologies, USA) followed by the secondary goat anti-rabbit antibodies Ab-Alexa594 (Molecular Probes, USA). Nuclei were visualized by staining with DAPI (Molecular probes, USA). Cells were visualized at magnification ×400 by fluorescent microscope Axioplan (Zeiss, Germany) equipped with corresponding color filter kits. Distribution throughout the cell of the activated p65 was assessed by the ImageJ software and was taken as 100% in the control samples (cytosol+nucleus).

Row | Molecule | effect on activated p65 (RelA) in the cell nucleus
15 | COc1cc(/C=C/C(=O)CC(=O)/C=C/c2ccc(O)c(OC)c2)ccc1O [Curcumin, curcumin] | significant decrease of activated RelA in the cell nucleus
16 | B1 | significant decrease of activated RelA in the cell nucleus

System: not listed separately
Assay: Adiabatic scanning microcalorimetry of heat denaturation
Format: physicochemical
Conditions: protein 2.0 mg/ml in PBS pH 7.4

Row | Molecule | ΔT1/2 (half width of the denaturation transition peak) [°C]
17 | B1 | 5.9
18 | B3 | 5.8
19 | B2 | 7.0

Same assay, conditions: protein 2.0 mg/ml in PBS pH 7.4; Zn/rhAFP 4/1, Ptx/rhAFP 1/1, Cur/rhAFP 1:1; error about ±6%

Row | Molecule | ΔH (denaturation enthalpy) [kcal/mol]
20 | B1 | 171
21 | B3 | 189
22 | B2 | 166

Same assay, conditions: protein 2.0 mg/ml in PBS pH 7.4; error ±0.5° C.

Row | Molecule | Tmax (denaturation transition temperature) [°C]
23 | B1 | 74.3
24 | B3 | 80.2
25 | B2 | 71.9
